Numbering of substitutions follows the chain as printed. One block for each molecule: values may come before it.
Key:
[1] = target: T1, recombinant human GPC3(Q25-H559)-6xHis (human, UniProt P51654 25-559); test: BLI (Octet Red96), scFv mFc captured on an AMC biosensor, rhGPC3 lot 2 at a single 500 nM concentration, 1:1 model
T1 construct: range 25-559; also called rhGPC3; RhGPC3

[2] = target: T2, human GPC5 overexpressed on K562 cells (human) (UniProt P78333); test: cell-based or functional assay
T2 sequence (looked up): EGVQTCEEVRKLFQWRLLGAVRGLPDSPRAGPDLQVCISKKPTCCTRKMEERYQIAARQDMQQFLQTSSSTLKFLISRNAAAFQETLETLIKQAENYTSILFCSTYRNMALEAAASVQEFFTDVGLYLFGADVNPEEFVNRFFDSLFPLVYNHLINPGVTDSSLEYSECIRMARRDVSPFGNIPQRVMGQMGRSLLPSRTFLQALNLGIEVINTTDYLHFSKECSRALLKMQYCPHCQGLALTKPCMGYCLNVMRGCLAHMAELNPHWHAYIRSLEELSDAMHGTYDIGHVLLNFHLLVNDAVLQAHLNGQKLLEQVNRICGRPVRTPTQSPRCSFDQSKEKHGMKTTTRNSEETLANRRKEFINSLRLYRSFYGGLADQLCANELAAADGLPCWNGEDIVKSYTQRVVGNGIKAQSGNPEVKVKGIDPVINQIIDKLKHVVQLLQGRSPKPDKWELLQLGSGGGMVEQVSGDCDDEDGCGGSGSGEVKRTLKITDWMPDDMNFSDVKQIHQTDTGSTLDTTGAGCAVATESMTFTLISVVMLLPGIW

[3] = target: mouse GPC3 overexpressed on K562 cells (mouse) (UniProt Q8CFZ4); test: cell-based or functional assay
[4] = target: human GPC3 (glypican 3), full length, on cells (human) (UniProt P51654); test: cell-based or functional assay
[5] = target: T1, recombinant human GPC3(Q25-H559)-6xHis; test: BLI (Octet Red96), scFv-Fc captured on AMC biosensors, rhGPC3 lot 1 as analyte, 1:1 model, global fit
Protocol: (§1) A kinetics constant for mAb1-1 scFv mFc binding to its target, GPC3, was determined using a Sartorius Octet Red96 with AMC biosensors. mAb1-1 scFv-Fc was diluted to 2 ug/mL and captured onto 7 AMC biosensor tips under agitation. One biosensor was left blank as a reference. Two lots of recombinant human GPC3(Q25-H559)-6×His (rhGPC3) at 464.3, 154.8, 51.59, 17.2, 5.73, 1.911 and 0 nM were used as analytes. The association phase was measured for 90 sec and the dissociation was measured for 120 sec. All measurements were corrected for baseline drift by subtracting a control sensor exposed to running buffer only. The data were analyzed using a 1:1 interaction model with global fitting for each analyte lot separately, using Octet analysis software.

[6] = target: T1, recombinant human GPC3(Q25-H559)-6xHis; test: BLI (Octet Red96), scFv-Fc captured on AMC biosensors, rhGPC3 lot 2 as analyte, 1:1 model, global fit
Protocol: as §1

Chain of mouse GPC3 overexpressed on K562 cells (mouse) (Q8CFZ4 25-579): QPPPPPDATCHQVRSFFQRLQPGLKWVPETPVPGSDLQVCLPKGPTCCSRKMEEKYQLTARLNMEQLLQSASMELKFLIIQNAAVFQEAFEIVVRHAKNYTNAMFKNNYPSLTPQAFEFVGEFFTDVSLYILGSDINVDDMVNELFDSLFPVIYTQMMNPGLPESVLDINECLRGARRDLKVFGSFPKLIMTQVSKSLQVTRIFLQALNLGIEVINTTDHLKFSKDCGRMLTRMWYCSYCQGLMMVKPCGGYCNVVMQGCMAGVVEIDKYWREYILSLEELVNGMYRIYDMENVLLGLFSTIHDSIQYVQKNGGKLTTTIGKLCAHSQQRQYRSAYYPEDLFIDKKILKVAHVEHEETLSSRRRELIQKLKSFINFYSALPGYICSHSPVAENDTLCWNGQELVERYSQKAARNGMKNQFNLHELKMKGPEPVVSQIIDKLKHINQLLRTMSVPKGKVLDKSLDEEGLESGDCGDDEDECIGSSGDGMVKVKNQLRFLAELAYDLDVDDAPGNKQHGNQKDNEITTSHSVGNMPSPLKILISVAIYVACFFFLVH
Chain of human GPC3 (glypican 3), full length, on cells (human) (P51654 25-554 limits assumed): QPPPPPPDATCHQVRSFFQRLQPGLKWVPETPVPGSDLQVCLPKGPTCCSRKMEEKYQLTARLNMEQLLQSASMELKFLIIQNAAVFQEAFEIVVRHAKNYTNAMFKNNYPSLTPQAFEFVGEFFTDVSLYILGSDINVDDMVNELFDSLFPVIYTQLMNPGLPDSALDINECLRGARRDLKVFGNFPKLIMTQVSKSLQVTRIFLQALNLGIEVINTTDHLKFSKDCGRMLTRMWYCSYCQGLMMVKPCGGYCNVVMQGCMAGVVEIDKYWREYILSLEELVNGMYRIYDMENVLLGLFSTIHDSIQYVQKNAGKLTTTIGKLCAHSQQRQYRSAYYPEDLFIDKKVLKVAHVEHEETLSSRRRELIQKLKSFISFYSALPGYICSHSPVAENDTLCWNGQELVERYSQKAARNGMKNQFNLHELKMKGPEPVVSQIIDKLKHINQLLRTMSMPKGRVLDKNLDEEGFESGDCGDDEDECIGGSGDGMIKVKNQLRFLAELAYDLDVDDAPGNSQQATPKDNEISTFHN
T1 sequence (P51654 other isoform, or with tags, fused parts or gaps limits assumed, form in doubt): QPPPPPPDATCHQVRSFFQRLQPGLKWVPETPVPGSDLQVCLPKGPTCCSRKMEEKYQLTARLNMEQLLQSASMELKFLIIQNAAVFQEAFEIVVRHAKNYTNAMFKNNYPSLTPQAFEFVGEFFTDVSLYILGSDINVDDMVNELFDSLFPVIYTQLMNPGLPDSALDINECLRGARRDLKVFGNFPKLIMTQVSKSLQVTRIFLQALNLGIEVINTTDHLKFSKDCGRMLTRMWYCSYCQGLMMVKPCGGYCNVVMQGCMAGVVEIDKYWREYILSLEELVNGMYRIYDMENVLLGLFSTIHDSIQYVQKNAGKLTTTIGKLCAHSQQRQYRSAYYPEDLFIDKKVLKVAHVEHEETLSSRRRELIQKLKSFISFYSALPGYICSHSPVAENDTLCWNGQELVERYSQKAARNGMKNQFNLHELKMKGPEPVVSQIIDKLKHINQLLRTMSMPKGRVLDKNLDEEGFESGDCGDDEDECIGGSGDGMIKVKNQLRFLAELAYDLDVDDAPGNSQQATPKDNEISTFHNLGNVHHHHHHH

Molecule: YP7 scFv mFc (Fc fusion)
Kd [1]: 8.73 nM
koff [1]: 0.000675 s⁻¹
kon [1]: 77300 M⁻¹ s⁻¹

B1: hmAb1-2 CAR (protein, part only; not given: hinge, transmembrane and signaling domains, part only)
chain, part: QVQLVQSGAEVKKPGASVKVSCKASGYTFTDYYIHWVRQAPGQGLEWMGEIYPGSGNTYYAQKFQGRVTMTRDTSTSTVYMELSSLRSEDTAVYYCARGNDYDAWFVYWGQGTLVTVSSGSTSGSGKPGSGEGSTKGDIVMTQSPDSLAVSLGERATINCKSSQSLLNSGTRKNYLAWYQQKPGQPPKLLIYWASIRESGVPDRFSGSGSGTDFTLTISSLQAEDVAVYYCKQSYSLYTFGQGTKLEIK
% dead target cells, flow cytometry, 48h, K562-human GPC5 [2]: 18.2%
% dead target cells, flow cytometry, 48h, K562-mouse GPC3 [3]: 48.3%
% cytolysis of Hep3B at 164h, xCELLigence, 500 CAR T cells, Donor 1 [4]: 95.7%
% cytolysis of Hep3B at 164h, xCELLigence, 500 CAR T cells, Donor 2 [4]: 91.3%
% dead target cells, flow cytometry, 48h, Hep3B [4]: 89.4%

B3: hmAb1-1 CAR (protein, part only; not given: hinge, transmembrane and signaling domains, part only)
chain, part: B1 chain, part with A24T, R72A, V79A, A156V, I158M, L221V
% dead target cells, flow cytometry, 48h, K562-human GPC5 [2]: 17.7%
% dead target cells, flow cytometry, 48h, K562-mouse GPC3 [3]: 53.9%
% cytolysis of Hep3B at 164h, xCELLigence, 500 CAR T cells, Donor 1 [4]: 96.4%
% cytolysis of Hep3B at 164h, xCELLigence, 500 CAR T cells, Donor 2 [4]: 93.4%
% dead target cells, flow cytometry, 48h, Hep3B [4]: 91.1%

Now from value to molecule:

% dead target cells, flow cytometry, 48h, K562-human GPC5 [2]: 16.3%
% dead target cells, flow cytometry, 48h, K562-mouse GPC3 [3]: 50.5%
% cytolysis of Hep3B at 164h, xCELLigence, 500 CAR T cells, Donor 1 [4]: 97.1%
% cytolysis of Hep3B at 164h, xCELLigence, 500 CAR T cells, Donor 2 [4]: 89.4%
% dead target cells, flow cytometry, 48h, Hep3B [4]: 89.9%
B2: hmAb1-3 CAR (protein, part only; not given: hinge, transmembrane and signaling domains, part only)
chain, part: B1 chain, part with A24T, R72A, V79A

Kd [5]: 32.7 nM
koff [5]: 0.00712 s⁻¹
kon [5]: 218000 M⁻¹ s⁻¹
Kd [6]: 35.2 nM
koff [6]: 0.00785 s⁻¹
kon [6]: 223000 M⁻¹ s⁻¹
B4: mAb1-1 scFv-Fc (single chain variable fragment fused to a murine IgG2A fragment crystallizable domain) (Fc fusion)
chain: B1 chain, part with A24T, R72A, V79A, A156V, I158M, L221V
notes: also called mAb1-1 scFv mFc; not shown: murine IgG2A fragment crystallizable (Fc) domain

% dead target cells, flow cytometry, 48h, K562-human GPC5 [2]: 16.4%
% dead target cells, flow cytometry, 48h, K562-mouse GPC3 [3]: 52.7%
% cytolysis of Hep3B at 164h, xCELLigence, 500 CAR T cells, Donor 1 [4]: 94.9%
% cytolysis of Hep3B at 164h, xCELLigence, 500 CAR T cells, Donor 2 [4]: 89.6%
% dead target cells, flow cytometry, 48h, Hep3B [4]: 89.8%
B5: hmAb1-4 CAR (protein, part only; not given: hinge, transmembrane and signaling domains, part only)
chain, part: B1 chain, part with A24T, M48I, V68A, M70L, R72A, V79A, L83F

% dead target cells, flow cytometry, 48h, K562-human GPC5 [2]: 18.5%
% dead target cells, flow cytometry, 48h, K562-mouse GPC3 [3]: 52.9%
% cytolysis of Hep3B at 164h, xCELLigence, 500 CAR T cells, Donor 1 [4]: 99.3%
% cytolysis of Hep3B at 164h, xCELLigence, 500 CAR T cells, Donor 2 [4]: 95%
% dead target cells, flow cytometry, 48h, Hep3B [4]: 90.5%
B6: hmAb1-5 CAR (protein, part only; not given: hinge, transmembrane and signaling domains, part only)
chain, part: B1 chain, part with A24T, M48I, V68A, M70L, R72A, V79A, L83F, A156V, I158M, L221V

% cytolysis, xCELLigence, Hep3B, High E:T (1,000 CAR T cells) [4]: 100%
% cytolysis, xCELLigence, Hep3B, Low E:T (500 CAR T cells) [4]: 99%
% cytolysis, xCELLigence, Huh7, High E:T (10,000 CAR T cells) [4]: 100%
% cytolysis, xCELLigence, Huh7, Low E:T (500 CAR T cells) [4]: 44%
IFNg secretion after 24 h coculture with Hep3B, Luminex, replicate 1 [4]: 37700 pg/mL
IFNg secretion after 24 h coculture with Hep3B, Luminex, replicate 2 [4]: 39400 pg/mL
IFNg secretion after 24 h coculture with Hep3B, Luminex, replicate 3 [4]: 44500 pg/mL
B7: mAb1-1_DNR2 CAR (mAb1-1 CAR co-expressed with TGFbDNR2) (protein, part only; not given: CAR signaling domains and DN TGFbR2, part only)
chain, part: B1 chain, part with A24T, R72A, V79A, A156V, I158M, L221V

From patent US20260242507A1 (KITE PHARMA, published 2026)
